From US20220017627A1 (Bristol-Myers Squibb, published 2022)

Assays:
[1] = molecular target: T1, cynomolgus IL-7Rα expressed on cynomolgus T cells / leukocytes (cynomolgus, UniProt Q38IC7 21-459); assay: cell-based or functional assay
T1 sequence: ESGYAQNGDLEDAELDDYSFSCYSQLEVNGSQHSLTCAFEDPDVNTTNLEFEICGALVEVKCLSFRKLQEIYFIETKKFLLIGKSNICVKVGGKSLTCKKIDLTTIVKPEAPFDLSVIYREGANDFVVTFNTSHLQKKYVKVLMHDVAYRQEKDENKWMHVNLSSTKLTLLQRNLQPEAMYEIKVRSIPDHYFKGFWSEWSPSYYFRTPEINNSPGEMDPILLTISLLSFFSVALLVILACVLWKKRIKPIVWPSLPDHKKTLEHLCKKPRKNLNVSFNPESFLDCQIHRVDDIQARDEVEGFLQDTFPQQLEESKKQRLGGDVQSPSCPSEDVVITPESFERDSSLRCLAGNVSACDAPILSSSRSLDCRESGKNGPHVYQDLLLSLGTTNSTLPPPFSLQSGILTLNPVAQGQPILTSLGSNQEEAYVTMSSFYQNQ

[2] = molecular target: T2, human IL-7Rα expressed on human T cells (whole blood / PBMCs) (human, UniProt P16871 21-239); assay: cell-based or functional assay
T2 chain: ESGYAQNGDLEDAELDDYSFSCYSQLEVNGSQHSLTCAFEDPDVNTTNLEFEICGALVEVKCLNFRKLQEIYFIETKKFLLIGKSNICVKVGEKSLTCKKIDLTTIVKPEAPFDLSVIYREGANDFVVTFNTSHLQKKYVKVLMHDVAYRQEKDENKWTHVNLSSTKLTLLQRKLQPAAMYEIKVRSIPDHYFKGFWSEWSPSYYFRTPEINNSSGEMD

[3] = molecular target: T2, human IL-7Rα expressed on human T cells …; assay: cell-based or functional assay
[4] = molecular target: T3, his-tagged human-IL7R extracellular domain construct (human, UniProt P16871 21-239); assay: SPR (Biacore T200), pH 6.0 against pH 7.4
T3 construct: Generated in house; also called human IL-7Rα; not shown: his tag
T3 chain: T2 chain
Description: (§1) Briefly, experiments were performed on a BIACORE™ T200 instrument (GE Healthcare, Chicago, Ill., USA) in a running buffer consisting of 10 mM NaPO4, 130 mM NaCl, 0.05% p20 (PBS-T) at either pH 7.4 or pH 6.0. The chip surface was prepared by immobilizing protein A on flow cell 1, 2, 3, and 4 of a CM5 sensor chip using ethyl(dimethylaminopropyl) carbodiimide/NHS to a density of 4000 RU. […] Purified extracellular domain constructs (generated in house) of his-tagged human-IL7R or cynomolgus-IL7R were tested for binding using a 2 fold serial dilution from 500 nM to 7.8 nM, with 180 s association time and 360 s dissociation time at 30 μl/min. Regeneration between cycles was accomplished using 2×30 second injections of 10 mM glycine-HCL pH 1.5. The data were analyzed using the Biacore T200 Evaluation software (GE Healthcare), and fit to a 1:1 Langmuir model.

[5] = molecular target: T4, his-tagged cynomolgus-IL7R extracellular domain construct (cynomolgus, UniProt Q38IC7 21-240); assay: SPR (Biacore T200), pH 6.0 against pH 7.4
T4 construct: also called cyno IL-7Rα; not shown: his tag
T4 sequence: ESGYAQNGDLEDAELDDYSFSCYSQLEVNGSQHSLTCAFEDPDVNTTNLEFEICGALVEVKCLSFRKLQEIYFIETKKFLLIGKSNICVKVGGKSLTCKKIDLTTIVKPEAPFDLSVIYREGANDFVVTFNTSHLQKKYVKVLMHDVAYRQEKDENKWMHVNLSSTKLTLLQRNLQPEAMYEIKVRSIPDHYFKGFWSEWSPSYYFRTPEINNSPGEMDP
Description: as §1

hIL-7R (Example 11) [6] = molecular target: T5, hIL-7R (Example 11) (human, UniProt P16871 21-239); assay: SPR (Biacore), reference of the ratio [cont'd]
T5 construct: Called full length hIL-7R for the mRNA display and hIL-7R for the Biacore runs; also called full length hIL-7R; human IL-7R
T5 chain: T2 chain
Description: (§2) Affinity (KD) of each variant binding to hIL-7R was obtained using this approach, and compared against the enrichment ratio (ER) obtained through NGS heat map analysis for the same variant.

[7] = molecular target: T2, human IL-7Rα expressed on human T cells …; assay: flow cytometry binding, CD4+CD45RA+ T cells in whole blood
[8] = molecular target: T2, human IL-7Rα expressed on human T cells …; assay: flow cytometry binding, CD4+CD45RA- T cells in whole blood
[9] = molecular target: T2, human IL-7Rα expressed on human T cells …; assay: flow cytometry binding, CD8+CD45RA+ T cells in whole blood
[10] = molecular target: T2, human IL-7Rα expressed on human T cells …; assay: flow cytometry binding, CD8+CD45RA- T cells in whole blood
[11] = molecular target: T3, his-tagged human-IL7R extracellular …; assay: SPR (Biacore T200), antibody captured on protein A, his-tagged ECD as analyte, 37° C., pH 6.0
Description: as §1

[12] = molecular target: T4, his-tagged cynomolgus-IL7R …; assay: as above
Description: as §1

[13] = molecular target: T3, his-tagged human-IL7R extracellular …; assay: SPR (Biacore T200), antibody captured on protein A, his-tagged ECD as analyte, 37° C., pH 7.4
Description: as §1

[14] = molecular target: T4, his-tagged cynomolgus-IL7R …; assay: as above
Description: as §1

hIL-7R (Example 11) [15] = molecular target: T5, hIL-7R (Example 11); assay: Biacore, mAb captured on anti-human IgG CM5 chip, hu IL-7R as analyte (top curve 33.3nM), HBS-P+ pH 7.4, 37 C
Description: as §2

[16] = molecular target: T1, cynomolgus IL-7Rα expressed on …; assay: flow cytometry, occupancy of IL-7Ra on CD4+CD45RA+ T cells of cynomolgus monkeys after a single i.v. dose, against serum concentration
Description: To confirm the above cross-reactivity data, cellular binding and functional blockade were also assessed. […] Then, at day 8 post-administration, PBMCs were isolated from the animals.

- IC50 of IL-7 mediated pSTAT5 activation against serum antibody concentration, cynomolgus monkeys [1]: ~2
- pSTAT5 IC50, CD4+CD45RA+ T cells in whole blood, IL-7 (0.25 ng/mL) [2]: 0.6 nM
- pSTAT5 IC50, CD4+CD45RA+ T cells in whole blood, IL-7 (2.0 ng/mL) [2]: 2.1 nM
- pSTAT5 IC50, IL-7 stimulated CD4+CD45RA+ T cells, CD (n = 10) [3]: 0.36 nM
- pSTAT5 IC50, IL-7 stimulated CD4+CD45RA+ T cells, NHV (n = 19) [3]: 0.6 nM
- pSTAT5 IC50, IL-7 stimulated CD4+CD45RA+ T cells, UC (n = 21) [3]: 0.34 nM
- pSTAT5 IC50, IL-7 stimulated CD4+CD45RA- T cells, CD (n = 10) [3]: 0.36 nM
- pSTAT5 IC50, IL-7 stimulated CD4+CD45RA- T cells, NHV (n = 19) [3]: 0.52 nM
- pSTAT5 IC50, IL-7 stimulated CD4+CD45RA- T cells, UC (n = 21) [3]: 0.28 nM
- pSTAT5 IC50, IL-7 stimulated CD8+CD45RA+ T cells, CD (n = 10) [3]: 0.29 nM
- pSTAT5 IC50, IL-7 stimulated CD8+CD45RA+ T cells, NHV (n = 19) [3]: 0.43 nM
- pSTAT5 IC50, IL-7 stimulated CD8+CD45RA+ T cells, UC (n = 21) [3]: 0.29 nM
- pSTAT5 IC50, IL-7 stimulated CD8+CD45RA- T cells, CD (n = 10) [3]: 0.23 nM
- pSTAT5 IC50, IL-7 stimulated CD8+CD45RA- T cells, NHV (n = 19) [3]: 0.38 nM
- pSTAT5 IC50, IL-7 stimulated CD8+CD45RA- T cells, UC (n = 21) [3]: 0.22 nM
- fold weaker binding at pH 6.0 than at pH 7.4 [4]: ~4 fold
- fold weaker binding at pH 6.0 than at pH 7.4 [5]: ~4 fold
- KD Relative to 18B1 (hIL-7R (Example 11) [6]): 1
- EC50 [7]: 1.4 nM
- EC50 [8]: 3.3 nM
- EC50 [9]: 2 nM
- EC50 [10]: 1.9 nM
- Kd [11]: 5.3 nM
- koff [11]: 0.0013 s⁻¹
- kon [11]: 240000 M⁻¹ s⁻¹
- Kd [12]: 7 nM
- koff [12]: 0.0016 s⁻¹
- kon [12]: 230000 M⁻¹ s⁻¹
- Kd [13]: 1.3 nM
- koff [13]: 0.0004 s⁻¹
- kon [13]: 310000 M⁻¹ s⁻¹
- Kd [14]: 1.7 nM
- koff [14]: 0.0005 s⁻¹
- kon [14]: 290000 M⁻¹ s⁻¹
- Kd (hIL-7R (Example 11) [15]): 1.4 nM
- koff (hIL-7R (Example 11) [15]): 0.00152 s⁻¹
- kon (hIL-7R (Example 11) [15]): 1.09e+06 M⁻¹ s⁻¹
- EC50 (read off the curve) [16]: ~0.04 µg/mL
B1: Anti-IL-7R Antibody (Antibody A) (antibody, human IgG1, kappa, V domains shown)
VH: EVQLVESGGGLVQPGRSLRLSCAASGFTFDDHAMHWVRQAPGKGLEWVSGISWNSRGIGYADSVKGRFTIFRDNAKNSLYLQMNSLRAEDTALYYCAKDEYSRGYYVLDVWGQGTTVTVSS
VL: AIQLTQSPSSLSASVGDRVTITCRASQGISSALAWYQQKPGKAPKLLIYDASSLESGVPSRFSGSGSGTDFTLTISSLQPEDFATYYCQQFNSYPLWITFGQGTRLEIKR
notes: also called 18B1; 18B1 antibody
